{
  "source": "patent US4493829A",
  "about": "“Bio-available succinylated protein-iron derivatives which do not cause gastric lesions, method of preparation and related pharmaceutical compounds” (Italfarmaco S.p.A., priority 1982, dated 1985)",
  "key": {"[1]": {"assay": "Haematic levels after oral administration: Ferrolat-ferrous sulphate comparison", "design": "species or system male Wistar rats", "details": "rat, in vivo, 1 mg/kg", "experimental": "Male Wistar rats, weighing approximately 200 grammes and starved for 18 hours were taken, randomized and separated into groups of 5; each group had been sacrificed at the determined hour and blood was taken from each animal by resecting the carotid; the amount of iron in the blood of each animal of the group was determined spectrophotometrically by means of bathophenanthrolinsulphonic acid (Fe-test, Wako). The administration was carried out by a probe in an acqueous solution (5 ml/kg).\nThe succinyl ferroprotein derivative which was used was prepared as in example 1 (Ferrolat). It can be seen that the quantity of iron/kg. was the same for both the derivatives (Fe: 1 mg/kg)."}, "[2]": {"assay": "Haematic levels after oral administration: Ferrolat-ferritin comparison", "type": "in vivo, male Wistar rats", "details": "1 mg/kg Fe oral", "experimental": "Male Wistar rats, weighing approximately 200 grams and starved for 18 hours, were taken, randomized and separated into groups of 9; each group was sacrificed at the determined hour and blood was taken from each animal by resecting the carotid. The amount of iron in the blood of each animal of the group was determined spectrophotometrically by means of the Iron Colorimetric Method (Boehringer-Mannheim). The administration was carried out by a probe in an acqueous solution (5 ml/kg). Dosages and results are shown in table X. It can be seen that the quantity of iron/kg for the succinyl ferroprotein derivative indicated as Ferrolat was that of ferritin (Sigma, St. Louis, Mo.) and equal to 1 mg/kg."}, "[3]": {"details": "ferritin based treatment; cited from earlier work"}, "[4]": {"details": "cited from earlier work"}, "[5]": {"assay": "Haematic levels: comparison between succinyl ferroprotein derivatives from different types of proteins", "type": "in vivo, male Wistar rats", "details": "two hours after administration, 1 mg/kg Fe oral", "experimental": "Male Wistar rats, weighing approximately 200 grams and starved for 18 hours, were taken, randomized and separated into groups of 5 (one per dose of derivative and a control group). Each group was sacrificed two hours after administration and, by resecting the carotid, blood was taken from each animal and the iron content in the blood was determined by means of bathophenanthrolinsulphonic acid Fe-test, Wako). The oral administration was carried out by a probe in an aqueous solution (5 ml/kg). The doses of individual derivatives which were used were selected so that 1 mg/kg of Fe was always administered."}},
  "data": [
    {"molecule": "O=S(=O)([O-])[O-].[Fe+2]", "note": "[FeSO4 7H2 O, ferrous sulphate]", "values": [
      {"measurement": "Serum iron", "setting": "[1]; 0.5 h", "value": 336.27, "unit": "μg %"},
      {"measurement": "Serum iron", "setting": "[1]; 1 h", "value": 272.14, "unit": "μg %"},
      {"measurement": "Serum iron", "setting": "[1]; 2 h", "value": 273.56, "unit": "μg %"},
      {"measurement": "Serum iron", "setting": "[1]; 4 h", "value": 129.50, "unit": "μg %"},
      {"measurement": "Serum iron", "setting": "[1]; 6 h", "value": 80.52, "unit": "μg %"}
    ]},
    {"molecule": "Ferritin", "values": [
      {"measurement": "Serum iron", "setting": "[2]; 1 hour after treatment", "value": 168.79, "unit": "μg/100 ml"},
      {"measurement": "Serum iron", "setting": "[2]; 2 hours after treatment", "value": 170.66, "unit": "μg/100 ml"},
      {"measurement": "Serum iron", "setting": "[2]; 4 hours after treatment", "value": 148.08, "unit": "μg/100 ml"},
      {"measurement": "Serum iron", "setting": "[2]; 6 hours after treatment", "value": 89.22, "unit": "μg/100 ml"},
      {"measurement": "gastrointestinal side effects", "setting": "[3]", "value": "does not result in the gastrointestinal side effects"},
      {"measurement": "solubility in water", "setting": "[4]", "value": "soluble in water"}
    ]},
    {"molecule": "Succ. ovalbumin: iron derivatives from succinylated egg proteins (ovalbumin) (protein, UniProt P01012 2-386, looked up, 95% succinylated, iron derivative 3.6% Fe) Ovalbumin: GSIGAASMEFCFDVFKELKVHHANENIFYCPIAIMSALAMVYLGAKDSTRTQINKVVRFDKLPGFGDSIEAQCGTSVNVHSSLRDILNQITKPNDVYSFSLASRLYAEERYPILPEYLQCVKELYRGGLEPINFQTAADQARELINSWVESQTNGIIRNVLQPSSVDSQTAMVLVNAIVFKGLWEKAFKDEDTQAMPFRVTEQESKPVQMMYQIGLFRVASMASEKMKILELPFASGTMSMLVLLPDEVSGLEQLESIINFEKLTEWTSSNVMEERKIKVYLPRMKMEEKYNLTSVLMAMGITDVFSSSANLSGISSAESLKISQAVHAAHAEINEAGREVVGSAEAGVDAASVSEEFRADHPFLFCIKHIATNAVLFFGRCVSP", "values": [
      {"measurement": "serum iron average values ± SE", "setting": "[5]", "value": "235.82 ± 46.06", "unit": "μg/100 ml"}
    ]}
  ]
}
